Test results as given in article PMC7665024, “Anti-apoptotic BCL-2 regulation by changes in dynamics of its long unstructured loop” (Communications Biology, 2020).
Entries after “also recorded” stand apart in the source; their conditions may differ.

Tests used:
[1] = test system: BCL-2 (EEE or WT):BimBH3, BAX-induced MOMP; assay: Cytochrome c release assay at varying amount of ABT-199; type: biochemical, mouse
Procedure: (§1) Fig. 2 In vitro assays for evaluating BCL-2 activity. a Cytochrome c release assay with various BCL-2 mutants at varying concentrations. All of the release amounts are normalized to the result caused by the BimBH3-induced BAX activation (lane 3). […] GUVs provide a MOM-like environment devoid of endogenous mitochondrial proteins.
The cytochrome c release assays were performed at varying amounts of ABT-199.
A Dounce homogenizer was used with 20 strokes to homogenize mouse liver tissue (0.2 mg). The mitochondria fraction was separated using centrifugation according to the Mitochondria Isolation Kit (Thermo Scientific). Mitochondria Assay Buffer A (MAB A) (200 mM mannitol, 68 mM sucrose, 10 mM HEPES, 110 mM KCl, 1 mM EDTA, […], 0.1% BSA, protease inhibitor) was used to wash the mitochondria fraction, followed by centrifugation at 12,000 × g. The pellet was collected and resuspended using enough MAB B (i.e., MBA A without 0.1% BSA) and then quantified by bradford assay (Bio-Rad) to yield a final protein content of the mitochondrial fraction ~3 mg/mL. […] Quantification of IB was done using ImageJ software (version 1.49, NIH). The fraction of cytochrome c released (%) is calculated by (I–I0)/(Imax–I0)×100%, where Imax and I0 are the analyzed intensities of cytochrome c with and without activated BAX, respectively. […]

BCL-2-dependent tumors = details: cited from earlier work
Source text: It is worth noting that the binding groove is also responsible for the engagement of an orally bioavailable small molecule ABT-199 (Venetoclax)[8],[13]. […] ABT-199 can displace the bound pro-apoptotic activator from the groove of BCL-2 efficiently and, consequently, cause the release of pro-apoptotic activators, promoting MOMP and apoptosis. This study will use ABT-199 to examine whether the BCL-2 mutants studied here have the same response as FL-BCL-2 to ABT-199.

[2] = test system: BAX-induced MOMP, isolated mitochondria; assay: In vitro cytochrome c release assay, isolated mitochondria (BCL-2 mutants); type: biochemical, mouse; details: for Cytochrome c release, Average: Bax+BimBH3 = 100, mean of n = 6
Source text: To verify this implication, we performed in vitro cytochrome c release assay using isolated mitochondria. […] Lane 3 (Fig. 2a) is a positive control for the cytochrome c release assays. […] (More experimental results in support of the observed BCL-2 activity are given in Supplementary Fig. 3.)
as §1
A Dounce homogenizer was used with 20 strokes to homogenize mouse liver tissue (0.2 mg). The mitochondria fraction was separated using centrifugation according to the Mitochondria Isolation Kit (Thermo Scientific). Mitochondria Assay Buffer A (MAB A) (200 mM mannitol, 68 mM sucrose, 10 mM HEPES, 110 mM KCl, 1 mM EDTA, […], 0.1% BSA, protease inhibitor) was used to wash the mitochondria fraction, followed by centrifugation at 12,000 × g. The pellet was collected and resuspended using enough MAB B (i.e., MBA A without 0.1% BSA) and then quantified by bradford assay (Bio-Rad) to yield a final protein content of the mitochondrial fraction ~3 mg/mL. The final mitochondria fraction was placed on ice for further downstream processing or stored at −80 °C with additional 300 mM trehalose for future use[38]. […] The mixture was then incubated with BAX (0.1 μM) and 10 μL of the mitochondrial fraction ([…]) for 0.5 h at 37 °C. Final volume was adjusted to 30 μL. Following centrifugation at 12,000×g for 10 min, the supernatant was subjected to subsequent immunoblotting (IB). Quantification of IB was done using ImageJ software (version 1.49, NIH). The fraction of cytochrome c released (%) is calculated by (I–I0)/(Imax–I0)×100%, where Imax and I0 are the analyzed intensities of cytochrome c with and without activated BAX, respectively.
Samples were resolved by SDS–PAGE (15%) and electroblotted onto a 0.45 μm PVDF membrane (GE Healthcare). Primary antibodies used in this study included rabbit anti-BAX N20 (Santa Cruz Biotechnology), mouse anti-BCL-2(C2) (Santa Cruz Biotechnology) and mouse anti-cytochrome c antibodies (clone 7H8.2C12, Millipore). Detection was achieved using sheep anti-mouse IgG HRP (GE Healthcare) and donkey anti-rabbit IgG HRP (GE Healthcare) secondary antibodies. Proteins were visualized by 4CN Plus Chromogenic Substrate (PerkinElmer).

trypsin = assay: Limited proteolysis by trypsin; details: BCL-2 20 μM, trypsin 0.04-9.44 μM, 1 h, room temperature, SDS-PAGE
Procedure: Fig. 3 Structural differences between WT and EEE. a An illustration of mutation sites prepared for spin-labeling ESR studies. b Distance distributions of various double-spin-labeled BCL-2 (WT or EEE) mutants are determined from the experimental DEER data. […] As highlighted, the displacements of α1 and α2 account for the major differences. d An illustration highlighting the positions of α2–α7 and the binding groove. Structures of WT and EEE are colored as in c. Helices α4–α7 change little between the WT and EEE. The displacement of α2 is critical to the change in the local environment of the binding groove. e Limited proteolysis of BCL-2 (20 μM) analyzed on SDS–PAGE. Trypsin concentrations were 0.04, 0.11, 0.34, 1.03, 3.11, 9.44 μM. Incubation time was 1 h at room temperature. It confirms that tertiary conformations of WT versus EEE are indeed different.
BCL-2 conformational change was assessed by limited proteolysis using trypsin (MERCK). In brief, 5 µg BCL-2 (WT or EEE) was digested at enzyme/substrate ratios ranging from 1:2 to 1:461 for 1 h at room temperature. Proteolysis was quenched by adding 1 mM PMSF, and then samples were confirmed by SDS–PAGE with Coomassie blue staining.

apoptotic cell death = details: phosphomimetic BCL-2; cited from earlier work
Source text: However, the three phosphorylation-related residues are in a 65-residue-long, highly flexible loop domain (denoted by FLD, herein; Fig. 1a) that is often removed for ...

[3] = BAX 0.1 µM, BimBH3 2 µM, Fig. 2a

CC1(C)CCC(CN2CCN(c3ccc(C(=O)NS(=O)(=O)c4ccc(NCC5CCOCC5)c([N+](=O)[O-])c4)c(Oc4cnc5[nH]ccc5c4)c3)CC2)=C(c2ccc(Cl)cc2)C1 [ABT-199, Venetoclax, reference compound]
effect on cytochrome c release (in words) ([1]; ABT-199 4–30 µM added to pre-incubated BCL-2 (EEE or WT), BimBH3 2 µM, BAX 0.1 µM, mitochondria, Fig. 2b): the greater the release of cytochrome c was detected | displacement of BimBH3 from BCL-2 (in words) ([1]; BCL-2 EEE or WT): can displace BimBH3 from BCL-2 (either EEE or WT) | inhibition of tumor growth (in words) (BCL-2-dependent tumors): potently inhibits the growth of BCL-2-dependent tumors

BAX: full-length mouse BAX; in FRET the single-cysteine variant BAX136C labeled with AL488 [reference compound]
inhibition of BAX-induced MOMP / cytochrome c release (in words) [2, 3]: inactive

B1: EEE (protein)
chain: MAHAGRTGYDNREIVMKYIHYKLSQRGYEWDAGDVGAAPPGAAPAPGIFSSQPGHTPHPAASRDPVAREEPLQTPAAPGAAAGPALEPVPPVVHLTLRQAGDDFSRRYRRDFAEMSSQLHLTPFTARGRFATVVEELFRDGVNWGRIVAFFEFGGVMCVESVNREMSPLVDNIALWMTEYLNRHLHTWIQDNGGWDAFVELYGPSMRPLFDFSWLSL
modifications: Pacific Blue (maleimide) on the native cysteine 158; left off: His6, C-terminal, state not stated
susceptibility to trypsin proteolysis (in words) (trypsin): relatively resistant | protection against apoptotic cell death (in words) (apoptotic cell death): enhanced to protect cells against apoptotic cell death | capacity to inhibit BAX-induced MOMP compared with S70E and WT (in words) [2, 3]: evidently greater than those of S70E (lanes 7–9) and WT (lanes 10–12); also recorded: the most potent in inhibiting the BAX-induced MOMP | inhibition of BAX-induced MOMP / cytochrome c release (in words) [2, 3]: largely inhibited | Cytochrome c release, Average ([2]; BAX+BimBH3 + 2uM BCL-2 protein): 66.3319 | Cytochrome c release, Average ([2]; BAX+BimBH3 + 4uM BCL-2 protein): 14.0555 | Cytochrome c release, Average ([2]; BAX+BimBH3 + 6uM BCL-2 protein): 8.953
